Consider 2 proteins from article PMC4510984 (Nature, 2015).

Where two headings read alike, the source gives them in different places.

What all share (experiment): transmission electron microscopy
Data set [1] deals with the molecule itself.
Data set [2] concerns the molecule itself. The source holds these as a separate data set.
Data set [3] concerns the molecule itself. This is another data set of the same source.

B1: human phosphofructokinase-1, platelet isoform (PFKP), recombinant wild type (enzyme, UniProt Q01813-1 1-784, looked up)
chain: MDADDSRAPKGSLRKFLEHLSGAGKAIGVLTSGGDAQGMNAAVRAVVRMGIYVGAKVYFIYEGYQGMVDGGSNIAEADWESVSSILQVGGTIIGSARCQAFRTREGRLKAACNLLQRGITNLCVIGGDGSLTGANLFRKEWSGLLEELARNGQIDKEAVQKYAYLNVVGMVGSIDNDFCGTDMTIGTDSALHRIIEVVDAIMTTAQSHQRTFVLEVMGRHCGYLALVSALACGADWVFLPESPPEEGWEEQMCVKLSENRARKKRLNIIIVAEGAIDTQNKPITSEKIKELVVTQLGYDTRVTILGHVQRGGTPSAFDRILASRMGVEAVIALLEATPDTPACVVSLNGNHAVRLPLMECVQMTQDVQKAMDERRFQDAVRLRGRSFAGNLNTYKRLAIKLPDDQIPKTNCNVAVINVGAPAAGMNAAVRSAVRVGIADGHRMLAIYDGFDGFAKGQIKEIGWTDVGGWTGQGGSILGTKRVLPGKYLEEIATQMRTHSINALLIIGGFEAYLGLLELSAAREKHEEFCVPMVMVPATVSNNVPGSDFSIGADTALNTITDTCDRIKQSASGTKRRVFIIETMGGYCGYLANMGGLAAGADAAYIFEEPFDIRDLQSNVEHLTEKMKTTIQRGLVLRNESCSENYTTDFIYQLYSEEGKGVFDCRKNVLGHMQQGGAPSPFDRNFGTKISARAMEWITAKLKEARGRGKKFTTDDSICVLGISKRNVIFQPVAELKKQTDFEHRIPKEQWWLKLRPLMKILAKYKASYDVSDSGQLEHVQPWSV
For the protein B1, the figures for the “stoichiometry N” value in data set [1] and in data set [2] were 2 and 4, respectively.

B2: PFKP-F649L (enzyme, human, UniProt Q01813-1 1-784, looked up)
chain: MDADDSRAPKGSLRKFLEHLSGAGKAIGVLTSGGDAQGMNAAVRAVVRMGIYVGAKVYFIYEGYQGMVDGGSNIAEADWESVSSILQVGGTIIGSARCQAFRTREGRLKAACNLLQRGITNLCVIGGDGSLTGANLFRKEWSGLLEELARNGQIDKEAVQKYAYLNVVGMVGSIDNDFCGTDMTIGTDSALHRIIEVVDAIMTTAQSHQRTFVLEVMGRHCGYLALVSALACGADWVFLPESPPEEGWEEQMCVKLSENRARKKRLNIIIVAEGAIDTQNKPITSEKIKELVVTQLGYDTRVTILGHVQRGGTPSAFDRILASRMGVEAVIALLEATPDTPACVVSLNGNHAVRLPLMECVQMTQDVQKAMDERRFQDAVRLRGRSFAGNLNTYKRLAIKLPDDQIPKTNCNVAVINVGAPAAGMNAAVRSAVRVGIADGHRMLAIYDGFDGFAKGQIKEIGWTDVGGWTGQGGSILGTKRVLPGKYLEEIATQMRTHSINALLIIGGFEAYLGLLELSAAREKHEEFCVPMVMVPATVSNNVPGSDFSIGADTALNTITDTCDRIKQSASGTKRRVFIIETMGGYCGYLANMGGLAAGADAAYIFEEPFDIRDLQSNVEHLTEKMKTTIQRGLVLRNESCSENYTTDLIYQLYSEEGKGVFDCRKNVLGHMQQGGAPSPFDRNFGTKISARAMEWITAKLKEARGRGKKFTTDDSICVLGISKRNVIFQPVAELKKQTDFEHRIPKEQWWLKLRPLMKILAKYKASYDVSDSGQLEHVQPWSV
As for B2, in data set [3], the stoichiometry N – broadly, a count of units in the complex or per binding partner – worked out at 2.
